Reference: article PMC9482650, “Quantitative fragmentomics allow affinity mapping of interactomes” (Nature Communications, 2022)

Experiments:
Experiment in all cases: holdup assay
Design in all cases: key: below the threshold = too weak to quantify, mostly under pKd 3.1 to 4
GRIP2_7, Q9C0E4 = target: GRIP2_7, Q9C0E4
MAGI2_2, Q86UL8 = target: MAGI2_2, Q86UL8
FRMPD2_3, Q68DX3 = target: FRMPD2_3, Q68DX3
MAGI2_6, Q86UL8 = target: MAGI2_6, Q86UL8
PARD3B_1, Q8TEW8 = target: T1, PARD3B_1, Q8TEW8
T1 sequence (Q8TEW8 196-299, limits assumed, looked up): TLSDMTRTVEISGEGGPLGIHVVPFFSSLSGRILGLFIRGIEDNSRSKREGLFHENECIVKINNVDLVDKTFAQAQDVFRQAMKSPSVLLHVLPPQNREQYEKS

GRIP1_2, Q9Y3R0 = target: T2, GRIP1_2, Q9Y3R0
T2 sequence (Q9Y3R0 145-248, limits assumed, looked up): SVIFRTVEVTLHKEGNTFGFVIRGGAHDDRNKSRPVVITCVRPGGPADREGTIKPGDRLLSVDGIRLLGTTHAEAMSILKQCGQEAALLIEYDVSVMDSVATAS

MPDZ_5, O75970 = target: T3, MPDZ_5, O75970
T3 sequence (O75970 695-796, limits assumed, looked up): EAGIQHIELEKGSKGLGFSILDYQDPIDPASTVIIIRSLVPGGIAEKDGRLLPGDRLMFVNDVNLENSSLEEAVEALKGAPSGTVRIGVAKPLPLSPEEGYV

DLG2_2, Q15700 = target: DLG2_2, Q15700
GIPC2, Q8TF65 = target: GIPC2, Q8TF65
Inadl_6, Q8NI35 = target: Inadl_6, Q8NI35
Inadl_8, Q8NI35 = target: Inadl_8, Q8NI35
CARD11, Q9BXL7 = target: T4, CARD11, Q9BXL7
T4 sequence (Q9BXL7 662-765, limits assumed, looked up): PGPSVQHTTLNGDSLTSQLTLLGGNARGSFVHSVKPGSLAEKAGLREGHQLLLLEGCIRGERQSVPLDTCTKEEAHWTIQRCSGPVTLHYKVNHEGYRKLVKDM

DLG1_2, Q12959 = target: DLG1_2, Q12959
GRIP1_5, Q9Y3R0 = target: T5, GRIP1_5, Q9Y3R0
T5 sequence (Q9Y3R0 568-668, limits assumed, looked up): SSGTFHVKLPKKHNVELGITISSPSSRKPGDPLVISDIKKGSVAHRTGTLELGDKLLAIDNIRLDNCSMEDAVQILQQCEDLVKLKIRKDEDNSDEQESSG

LIN7B, Q9HAP6 = target: T6, LIN7B, Q9HAP6
T6 sequence (Q9HAP6 88-185, limits assumed, looked up): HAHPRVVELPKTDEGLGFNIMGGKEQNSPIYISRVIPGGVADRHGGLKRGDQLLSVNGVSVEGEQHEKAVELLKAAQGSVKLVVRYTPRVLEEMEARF

NHERF4_2, Q86UT5 = target: NHERF4_2, Q86UT5
MPDZ_10, O75970 = target: T7, MPDZ_10, O75970
T7 sequence (O75970 1624-1722, limits assumed, looked up): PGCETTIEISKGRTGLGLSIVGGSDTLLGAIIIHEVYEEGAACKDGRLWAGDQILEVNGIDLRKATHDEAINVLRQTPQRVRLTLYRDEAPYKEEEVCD

MPP7, Q5T2T1 = target: T8, MPP7, Q5T2T1
T8 sequence (Q5T2T1 134-230, limits assumed, looked up): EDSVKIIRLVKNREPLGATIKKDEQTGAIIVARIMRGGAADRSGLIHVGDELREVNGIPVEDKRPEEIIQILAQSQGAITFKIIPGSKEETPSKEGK

TJP2_1, Q9UDY2 = target: TJP2_1, Q9UDY2
GRIP2_6, Q9C0E4 = target: GRIP2_6, Q9C0E4
APBA3_1, O96018 = target: T9, APBA3_1, O96018
T9 sequence (O96018 389-490, limits assumed, looked up): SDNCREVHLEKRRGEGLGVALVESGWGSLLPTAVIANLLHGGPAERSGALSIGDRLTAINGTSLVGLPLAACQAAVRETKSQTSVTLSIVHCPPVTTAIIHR

GRIP1_4, Q9Y3R0 = target: T10, GRIP1_4, Q9Y3R0
T10 sequence (Q9Y3R0 467-571, limits assumed, looked up): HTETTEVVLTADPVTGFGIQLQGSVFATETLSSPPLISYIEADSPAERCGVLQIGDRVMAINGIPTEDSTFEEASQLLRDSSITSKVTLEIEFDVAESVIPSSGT

LNX1_2, Q8TBB1 = target: LNX1_2, Q8TBB1
MAGI1_1, Q96QZ7 = target: MAGI1_1, Q96QZ7
LIN7A, O14910 = target: T11, LIN7A, O14910
T11 sequence (O14910 103-200, limits assumed, looked up): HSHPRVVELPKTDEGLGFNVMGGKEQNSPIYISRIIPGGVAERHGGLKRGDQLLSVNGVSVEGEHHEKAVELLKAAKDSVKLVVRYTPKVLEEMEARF

[1] = plain residues with an end cap or a label only (N-terminal biotin on a linker: ahx)
[2] = plain residues with an end cap or a label only (N-terminal biotin on a linker: ttds)

Sequence of MAGI2_2, Q86UL8 (Q86UL8 410-522): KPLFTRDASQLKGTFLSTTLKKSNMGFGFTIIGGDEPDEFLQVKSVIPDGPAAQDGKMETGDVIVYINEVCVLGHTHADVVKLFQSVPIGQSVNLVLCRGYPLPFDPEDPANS
Sequence of MAGI1_1, Q96QZ7 (Q96QZ7 1-106): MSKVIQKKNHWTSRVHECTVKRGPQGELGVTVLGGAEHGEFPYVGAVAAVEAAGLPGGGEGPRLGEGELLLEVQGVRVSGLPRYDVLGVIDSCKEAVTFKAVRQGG
Sequence of Inadl_8, Q8NI35 (Q8NI35 1425-1530): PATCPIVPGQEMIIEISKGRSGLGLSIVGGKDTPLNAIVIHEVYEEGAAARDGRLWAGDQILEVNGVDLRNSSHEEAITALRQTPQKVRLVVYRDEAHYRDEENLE
Sequence of GRIP2_7, Q9C0E4 (Q9C0E4 934-1023): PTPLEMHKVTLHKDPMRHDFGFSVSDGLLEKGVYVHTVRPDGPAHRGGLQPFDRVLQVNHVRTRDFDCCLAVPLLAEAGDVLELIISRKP
Sequence of DLG1_2, Q12959 (Q12959 314-412): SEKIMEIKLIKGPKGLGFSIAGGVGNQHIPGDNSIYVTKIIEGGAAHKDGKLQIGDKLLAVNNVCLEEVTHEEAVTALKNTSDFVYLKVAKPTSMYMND
Sequence of MAGI2_6, Q86UL8 (Q86UL8 1141-1229): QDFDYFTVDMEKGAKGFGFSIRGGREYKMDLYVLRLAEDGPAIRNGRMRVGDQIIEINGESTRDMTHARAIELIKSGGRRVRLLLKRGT
Sequence of DLG2_2, Q15700 (Q15700 189-283): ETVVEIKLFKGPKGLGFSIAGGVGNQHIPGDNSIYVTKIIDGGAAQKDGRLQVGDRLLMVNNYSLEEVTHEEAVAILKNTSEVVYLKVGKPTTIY
Sequence of Inadl_6, Q8NI35 (Q8NI35 1058-1167): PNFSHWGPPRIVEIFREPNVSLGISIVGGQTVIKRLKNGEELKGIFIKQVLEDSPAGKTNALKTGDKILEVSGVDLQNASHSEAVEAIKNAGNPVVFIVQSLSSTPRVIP
Sequence of TJP2_1, Q9UDY2 (Q9UDY2 24-128): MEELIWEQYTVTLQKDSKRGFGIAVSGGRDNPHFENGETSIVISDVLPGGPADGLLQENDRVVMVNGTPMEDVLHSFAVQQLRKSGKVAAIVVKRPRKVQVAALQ
Sequence of LNX1_2, Q8TBB1 (Q8TBB1 371-470): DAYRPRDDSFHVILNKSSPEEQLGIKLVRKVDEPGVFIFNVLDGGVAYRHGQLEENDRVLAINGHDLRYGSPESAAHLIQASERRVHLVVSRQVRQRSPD
Sequence of GRIP2_6, Q9C0E4 (Q9C0E4 648-740): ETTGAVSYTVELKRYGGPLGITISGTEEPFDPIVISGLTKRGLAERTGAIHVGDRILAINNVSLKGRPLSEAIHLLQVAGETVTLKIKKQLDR
Sequence of GIPC2, Q8TF65 (Q8TF65 112-203): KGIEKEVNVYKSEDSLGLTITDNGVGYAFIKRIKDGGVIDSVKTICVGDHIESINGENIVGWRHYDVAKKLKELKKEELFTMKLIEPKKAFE
Sequence of FRMPD2_3, Q68DX3 (Q68DX3 1073-1166): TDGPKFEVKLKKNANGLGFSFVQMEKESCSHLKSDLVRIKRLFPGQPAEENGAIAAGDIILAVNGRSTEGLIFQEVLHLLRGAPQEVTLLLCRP
Sequence of NHERF4_2, Q86UT5 (Q86UT5 220-308): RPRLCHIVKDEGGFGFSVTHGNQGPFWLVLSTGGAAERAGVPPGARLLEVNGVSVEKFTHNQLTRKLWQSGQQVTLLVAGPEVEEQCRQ

**Q.** How did the pKd (GRIP2_7, Q9C0E4; [1]) turn out when KDECVIATEV [DLL1, O00548] was run?
**A.** below the threshold

**Q.** And the pKd (MAGI2_2, Q86UL8; [1])?
**A.** below the threshold

**Q.** And the pKd (FRMPD2_3, Q68DX3; [1])?
**A.** below the threshold

**Q.** What about the pKd (MAGI2_6, Q86UL8; [1]) of the same binder?
**A.** 4.55

**Q.** And the pKd (PARD3B_1, Q8TEW8; [1])?
**A.** below the threshold

**Q.** And the pKd (GRIP1_2, Q9Y3R0; [1])?
**A.** below the threshold

**Q.** And the pKd (MPDZ_5, O75970; [1])?
**A.** below the threshold

**Q.** And the pKd (DLG2_2, Q15700; [1])?
**A.** 3.62

**Q.** And the pKd (GIPC2, Q8TF65; [1])?
**A.** below the threshold

**Q.** What about the pKd (Inadl_6, Q8NI35; [1]) of the same binder?
**A.** below the threshold

**Q.** What about the pKd (Inadl_8, Q8NI35; [1]) of the same binder?
**A.** 3.64

**Q.** What about the pKd (CARD11, Q9BXL7; [1]) of the same binder?
**A.** below the threshold

**Q.** What about the pKd (DLG1_2, Q12959; [1]) of the same binder?
**A.** 4.37

**Q.** And the pKd (GRIP1_5, Q9Y3R0; [1])?
**A.** below the threshold

**Q.** And the pKd (LIN7B, Q9HAP6; [1])?
**A.** below the threshold

**Q.** And the pKd (NHERF4_2, Q86UT5; [1])?
**A.** below the threshold

**Q.** What about the pKd (MPDZ_10, O75970; [1]) of the same binder?
**A.** 3.48

**Q.** What about the pKd (MPP7, Q5T2T1; [1]) of the same binder?
**A.** below the threshold

**Q.** And the pKd (TJP2_1, Q9UDY2; [1])?
**A.** below the threshold

**Q.** What about the pKd (GRIP2_6, Q9C0E4; [1]) of the same binder?
**A.** below the threshold

**Q.** And the pKd (APBA3_1, O96018; [1])?
**A.** below the threshold

**Q.** And the pKd (GRIP1_4, Q9Y3R0; [1])?
**A.** below the threshold

**Q.** And the pKd (LNX1_2, Q8TBB1; [1])?
**A.** below the threshold

**Q.** And the pKd (MAGI1_1, Q96QZ7; [1])?
**A.** below the threshold

**Q.** What about the pKd (LIN7A, O14910; [1]) of the same binder?
**A.** below the threshold

**Q.** What does the source list for NPDALPETLV [ARHGAP6, O43182]?
**A.** pKd (GRIP2_7, Q9C0E4; [2]): below the threshold; pKd (MAGI2_2, Q86UL8; [2]): 4.1; pKd (FRMPD2_3, Q68DX3; [2]): below the threshold; pKd (MAGI2_6, Q86UL8; [2]): 4.31; pKd (PARD3B_1, Q8TEW8; [2]): below the threshold; pKd (GRIP1_2, Q9Y3R0; [2]): below the threshold; pKd (MPDZ_5, O75970; [2]): below the threshold; pKd (DLG2_2, Q15700; [2]): 4.23; pKd (GIPC2, Q8TF65; [2]): 3.49; pKd (Inadl_6, Q8NI35; [2]): 4.3; pKd (Inadl_8, Q8NI35; [2]): below the threshold; pKd (CARD11, Q9BXL7; [2]): below the threshold; pKd (DLG1_2, Q12959; [2]): 4.49; pKd (GRIP1_5, Q9Y3R0; [2]): below the threshold; pKd (LIN7B, Q9HAP6; [2]): 3.77; pKd (NHERF4_2, Q86UT5; [2]): below the threshold; pKd (MPDZ_10, O75970; [2]): below the threshold; pKd (MPP7, Q5T2T1; [2]): below the threshold; pKd (TJP2_1, Q9UDY2; [2]): below the threshold; pKd (GRIP2_6, Q9C0E4; [2]): below the threshold; pKd (APBA3_1, O96018; [2]): below the threshold; pKd (GRIP1_4, Q9Y3R0; [2]): below the threshold; pKd (LNX1_2, Q8TBB1; [2]): 3.73; pKd (MAGI1_1, Q96QZ7; [2]): below the threshold; pKd (LIN7A, O14910; [2]): 3.61

**Q.** Which pKd (GRIP2_7, Q9C0E4; [2]) does the source give for QRPYRRESEI [KCNJ12, Q14500] here?
**A.** below the threshold

**Q.** And the pKd (MAGI2_2, Q86UL8; [2])?
**A.** 4.21

**Q.** What about the pKd (FRMPD2_3, Q68DX3; [2]) of the same binder?
**A.** below the threshold

**Q.** And the pKd (MAGI2_6, Q86UL8; [2])?
**A.** below the threshold

**Q.** What about the pKd (PARD3B_1, Q8TEW8; [2]) of the same binder?
**A.** below the threshold

**Q.** And the pKd (GRIP1_2, Q9Y3R0; [2])?
**A.** below the threshold

**Q.** What about the pKd (MPDZ_5, O75970; [2]) of the same binder?
**A.** below the threshold

**Q.** And the pKd (DLG2_2, Q15700; [2])?
**A.** 3.96

**Q.** What about the pKd (GIPC2, Q8TF65; [2]) of the same binder?
**A.** below the threshold

**Q.** And the pKd (Inadl_6, Q8NI35; [2])?
**A.** below the threshold

**Q.** What about the pKd (Inadl_8, Q8NI35; [2]) of the same binder?
**A.** below the threshold

**Q.** And the pKd (CARD11, Q9BXL7; [2])?
**A.** below the threshold

**Q.** What about the pKd (DLG1_2, Q12959; [2]) of the same binder?
**A.** 4.61

**Q.** And the pKd (GRIP1_5, Q9Y3R0; [2])?
**A.** below the threshold

**Q.** And the pKd (LIN7B, Q9HAP6; [2])?
**A.** below the threshold

**Q.** What about the pKd (NHERF4_2, Q86UT5; [2]) of the same binder?
**A.** below the threshold

**Q.** And the pKd (MPDZ_10, O75970; [2])?
**A.** below the threshold

**Q.** And the pKd (MPP7, Q5T2T1; [2])?
**A.** below the threshold

**Q.** And the pKd (TJP2_1, Q9UDY2; [2])?
**A.** below the threshold

**Q.** And the pKd (GRIP2_6, Q9C0E4; [2])?
**A.** below the threshold

**Q.** And the pKd (APBA3_1, O96018; [2])?
**A.** below the threshold

**Q.** And the pKd (GRIP1_4, Q9Y3R0; [2])?
**A.** below the threshold

**Q.** What about the pKd (LNX1_2, Q8TBB1; [2]) of the same binder?
**A.** below the threshold

**Q.** And the pKd (MAGI1_1, Q96QZ7; [2])?
**A.** below the threshold

**Q.** And the pKd (LIN7A, O14910; [2])?
**A.** below the threshold
